From US7125704B2, “Gluconate dehydratase” (priority 2003, dated 2006) come the findings set out here.

This data set is described as follows: Thermostability and storage stability of purified gluconate dehydratase (remaining activity after standing). The class given is physicochemical, Achromobacter xylosoxidans strain ATCC 9220. Here is the method: The gluconate dehydratase activity in the present invention produces 2-keto-3-deoxy-D-gluconic acid, using D-gluconic acid as the substrate. The activity can be determined as follows: A reaction mixture in an amount of 1 mL containing […] of a Tris buffer (pH 8.5), 40 μmol of sodium D-gluconate, 1 μmol of magnesium chloride, and the gluconate dehydratase is allowed to react at 37° C. for 10 minutes, and 200 μL of 1 M hydrochloric acid solution is added to the reaction mixture to stop the reaction; and then, the amount of the resulting 2-keto-3-deoxy-D-gluconic acid is determined by high-performance liquid chromatography (column: Shodex Asahipak NH2P-50 4E, produced by Showa Denko, column temperature: 40° C., mobile phase: 50 mM sodium dihydrogen phosphate solution, flow rate: 1 mL/min, detection at 210 nm). An amount of enzyme for catalyzing the production of 1 μmol of 2-keto-3-deoxy-D-gluconic acid for one minute is defined as 1 U. The amount of protein may be determined by a dye-binding method using a Bio-Rad protein assay kit.
Samples of the purified gluconate dehydratase solution prepared in Example 3, which was dissolved in the 30 mM Tris buffer (pH 8.5) containing 1 mM sodium D-gluconate and 1 mM magnesium chloride, […] Another sample was allowed to stand at 4° C. for 7 days and 30 days. […]

B1: Gluconate Dehydratase: heat-resistant gluconate dehydratase purified from Achromobacter xylosoxidans strain ATCC 9220, amino acid sequence SEQ ID NO:2 (protein)
chain: MTDTPRKLRSQKWFDDPAHADMTAIYVERYLNYGLTRQELQSGRPIIGIAQTGSDLAPCNRHHLALAERIKAGIRDAGGIPMEFPVHPLAEQGRRPTAALDRNLAYLGLVEILHGYPLDGVVLTTGCDKTTPACLMAAATVDIPAIVLSGGPMLDGWHDGQRVGSGTVIWHARNLMAAGKLDYEGFMTLATASSPSIGHCNTMGTALSMNSLAEALGMSLPTCASIPAPYRERGQMAYATGLRICDMVREDLRPSRILTREAFENAIVVASALGASSNCPPHLIAMARHAGIDLSLDDWQRLGEDVPLLVNCVPAGEHLGEGFHRAGGVPAVMHELLAAGRLHADCATVSGKTIGEIAAGAKTHDADVIRGCDAPLKHRAGFIVLSGNFFDSAVIKMSVVGEAFRRAYLSAPGDENAFEARAIVFEGPEDYHARIEDPALNIDEHCILVIRGAGTVGYPGSAEVVNMAPPSHLIKRGIDSLPCLGDGRQSGTSASPSILNMSPEAAVGGGLALLRTGDRIRVDLNQRSVIALVDEAELARRRQDPPYQPPPAQTPWQELYRQLVGQLSTGGCLEPSTLYLKVVETRGDPRHSH
modifications: Achromobacter xylosoxidans
For B1, for the setting “buffer, 168 h”, the “Remaining activity (%)” value worked out at 100%. Moreover, the “Storage stability of the activity” value (storage at 0° C. in Tris buffer (pH 8.0 to 8.8), 1 mM sodium D-gluconate, 1 mM magnesium chloride (same conditions as the M250 report)) was “maintain the activity stably for one month”.
